The values that follow come from US20200179533A1.

Test [1] concerns the target PiT-2 receptor (human receptor gene PiT-2, SLC20A2) (human) (UniProt Q08357). The experiment in a line: cell-based or functional assay.
The target of the next test is PiT-2-HA (human) (UniProt Q08357). As to the kind of experiment: cell-based or functional assay.

In test [1], “Amphotropic Envelope gene product included in the Reximmune-C1 and 2 retroviral vector” yielded an EGFP+ cells (%) (transduction efficiency, PiT-2-CHO-K1) of 34%; an EGFP+ cells (%) (transduction efficiency, PiT-2-MIA-PaCa-2) of 78.6%; an EGFP+ cells (%) (transduction efficiency, PiT-2-RKO) of 43.1%. Also, in the test with PiT-2-HA (human), the EGFP+ cells (%) (transduction efficiency, PiT-2-HA-HCT-15) was determined as 14.9%.
